From the DeepSol protein solubility set

Assay: soluble on expression in E. coli; label from the status in PepcDB or PDB records
In the case of “METKILYQKVSADLKRRILDGDYEVGGLIPSEGELERYYQVSKITIRKAVEVLVSEGYLEKKSGIGTRVISNDLFNKLTQTQSFTATVGQQGKLTKELIKIERVPAVPALLPSESQGTMLRIKRRYLLDGKPFAVVDHYLPNTLVPTKLTALRHRSLYKILQENGQTITHFQDKFSAVTLADSERALLESQTPLAIRRERKGYDGHQRLVEFSIATYQTDVVPYQINYDVL”, the “soluble on expression in E. coli” value is reported as “not soluble”. With “METKYRKPFVYEFITEKEVMNAANDLVKKGIEQKDIYVLTHEKERTDRIADNADVNTIGIKEEGLGTSIINVFQKTGDQLRNKMQELGLNEEEANFYEEKLDEGKILLFVKDLERVGEWLHERRCMYSI” the “soluble on expression in E. coli” value was “not soluble”. In the case of “METLLLVQLFHELALKGKNRPFFLKRAKAHVRRALKGLGVALEGEWPMALLFRLPEEAWPEAKARLQDTLGVERFARVHRTPPDLEALKAALEKALEGQAFGSFRITAKRSDKAFPLTSPEIERALGAFVKGKTGAPVRLKGAEREFVVRVLPGAALLEVERHPGPGGLPPGVSGRVVALLSGGIDSPVAAYRLMRRGAEVVLVHFHPFPLLSGASREKAKALAERLARFQHRLRLHLVPFSEVQRHIIVEAPTAYRVVLYRRYMLRIAEAIAREEGALALCTGDSLGQVASQTLENLHAVNQAATLPVFRPLIGWDKEEIVAEAQRIGTYATSILPDEECCTLFAPKHPVTRARLEVVLETEARLPTEELLALALKEREVLTYTWPGKPLPEEPEGAFIMEHGPA”, the “soluble on expression in E. coli” value is reported as “soluble”. For “METSMRYTSNSKSMKIHAKEKVPVNSKTHLQLHGELDTGTGAPSYFCAMIRHFFPEASTGLGVGLHYDKRQKLRCLVRGKKEFPVRADKRVTFNIKGRCDIDQDLNQKNPKGAAEFAWNIMDFKEDQDVRIKVGYEMFDKVPYMQIRENNWTLNANMKGKWNLRYDL”, the “soluble on expression in E. coli” value was “not soluble”. For “MEVHKAITAHSRKQNESVKACLQLDAQREAAIEAAVSLASNGKEFSVDVINVVTKQINDLAKNGVTLQRKYVTEEMVMEYVSRLKKKEGR”, the “soluble on expression in E. coli” value was “not soluble”. For “MEVPENLKNPQNARREGSNMKCLADYSVEKEVGEGSFSTVYLARRKEPKNDENPEVALKICLKRLILKNKMVPYIHREKEALALISREENAHPGIVTLYATFQDSESLYFVLEYAKYGDLCTLMQKQPDSKFNVADSRYYAANLLSALEHIHKLGIIHRDVKADNLLVKSDGRIMLTDFGSSKFLSDYQKIQENPVEEEQPTGRRSSFVGTAFFVTPELLTGSEMSPSSDLWAFSVTLYLFLTGIYPFNDMSEYLVFRRIQDILYTFSEDFPDENAKNLIERLLVKEQKSRLTSQEIKEHKFFESIDFEHLEQLEPPRIY”, the “soluble on expression in E. coli” value was “not soluble”. With “MEVQFKNTRKGYYLNSERIELHKGDVVAVEANPGHDIGTVTLTGKLVKLQMRKHRYNTNNGEPFKIYRIAKQGDLDKYCEAKAREYDTMIQSRQISAELNLDMKIGDVEYQGDGNKAIFYYIADERVDFRQLIRVLAETFHIRVEMKQIGARQEAGRIGGIGPCGRQLCCSAWKMNFVSVNTSAARYQDLALNPQKLTGLCAKLKCCLNYEVDAYVEARKKMPSPEIVLETKESAYHYFKADVFRREVSYSTVPNAPVNLTTISARRAFEVISQNKQGFKPVSLEYDDKKQSSGHELSDILTDNSLTRFDDALSRRRRRNGNGNRDFSDREKAGEPHRTPDSIQPTPRVRSSSRMPSREKSPRPEGGDRRENMRERSRGDARFARPYTNEGGSERMEGARRVVGSGRRPPRQSTPRQEDRQGERKEE” the “soluble on expression in E. coli” value was “not soluble”. For “MEVRFTRGKSAILERSLTRPKTEVSVSAFALLFSEMVQYCQSRVYSVSELQARLADMGQGVGASLLDVLVMREKNGKRETKVLNILLFIKVNVWKALFGKEADKLEQANDDDKTYYIIEKEPLINAYISVPKENSTLNCAAFTGGIVEAILTHSGFPAKVTVHWHKGTTLMIKFDESVIARDKALDGR”, the “soluble on expression in E. coli” value was “soluble”. For “MEWKPNRADKTPVYKQIADYIERGISSGEFPSDSKLPSERMLAKELQVNRSTIVAAYEELKSLGVVERQKGSGTRVNTDIWGVSHKRIPNWGRYVEDGSFLPNVPLVQQIRTETQKDDLINLASGELSPELIPSDRFRTILSEKTFMENLGYDHPLGNEMLRKTIAAHVQQYKQIEADSSSILITSGAQQALNLIVQCLLKPGDAIAIEDPSYCFSLPMFKSAGLNIFHLPVDEHGMNPDDLIDLHKKHRIRMVFLNPDYQNPTGTVLSLARRKKILELSSEFGIPIVEDDPYSLISFNGEVNPTLKSMDQNGNVLYISSLSKIVASGLRIGWIIGPTRVIERLADAKQQVDFGHSVFTQWVANQFLESKDFHKHITILRGQLKQRRDVLIAELEGTLGDRVECFVPEGGIHVWCKVKGKFDEYHLLGESIQNGVAFVPGSVLGSKNEYIRFTFGRANIEQIQLGIKRFADTLNEIS”, the “soluble on expression in E. coli” value was “not soluble”. For “MEYQHWLREAISQLQASESPRRDAEILLEHVTGRGRTFILAFGETQLTDEQCQQLDALLTRRRDGEPIAHLTGVREFWSLPLFVSPATLIPRPDTECLVEQALARLPEQPCRILDLGTGTGAIALALASERPDCEIIAVDRMPDAVSLAQRNAQHLAIKNIHILQSDWFSALAGQQFAMIVSNPPYIDEQDPHLQQGDVRFEPLTALVAADSGMADIVHIIEQSRNALVSGGFLLLEHGWQQGEAVRQAFILAGYHDVETCRDYGDNERVTLGRYYQ”, the “soluble on expression in E. coli” value was “soluble”. In the case of “MEYSHLIPEASHAQTSFGLLYMWANDYEYGVFIDDDTLPHEDADFFGTHMSNLAFEGEIETVSSDEQWVNVLYQNEDEHGLYPRGYPYAAMDETVATEATQVNDVVASQGLWTNVPDLDAVRILMDGDLQGQAQTRTSGADFGDDFVAAEGQYLTVCSMNLAFRREVIPAFYQLPMDDNEWDVGRFDDIWSGVFLKRACDVLGKQIYNGDPLCEHNKAPRSTFSDLTNEVHGLELNEHVWEIVDEAGADADSYAEVFDAIATAMADGDFSDWENGAFLNYCGEFMLDWLECLDELDAAATELEHHHHHH”, the “soluble on expression in E. coli” value is reported as “soluble”. With “MFARDIGIDLGTANVLIHVKGKGIVLNEPSVVAIDRNTGKVLAVGEEARSMVGRTPGNIVAIRPLKDGVIADFEITEAMLKYFINKLDVKSFFSKPRILICCPTNITSVEQKAIREAAERSGGKTVFLEEEPKVAAVGAGMEIFQPSGNMVVDIGGGTTDIAVLSMGDIVTSSSIKMAGDKFDMEILNYIKRKYKLLIGERTSEDIKIKVGTVFPGARSEELEIRGRDMVTGLPRTITVCSEEITEALKENAAVIVQAAKGVLERTPPELSADIIDRGVILTGGGALLHGIDMLLAEELKVPVLIAENPMHCVAVGTGIMLENIDKLPRRALK” the “soluble on expression in E. coli” value was “not soluble”. For “MFCEKAMELIRELHRAPEGQLPAFNEDGLRQVLEEMKALYEQNQSDVNEAKSGGRSDLIPTIKFRHCSLLRNRRCTVAYLYDRLLRIRALRWEYGSILPNALRFHMAAEEMEWFNNYKRSLATYMRSLGGDEGLDITQDMKPPKSLYIEVRCLKDYGEFEVDDGTSVLLKKNSQHFLPRWKCEQLIRQGVLEHILS”, the “soluble on expression in E. coli” value was “soluble”. With “MFDKKLSSNDWHIQKVEMNHQVYDIETMLADSAFREHEEEQDSSLNTALPEDKTAIEAKEQEQKEKRKRWYELFKKKPKPKSSMGEFVFDQKENRIYGKGYCNRYFASYVWQGDRHIGIEDSGISRKVCKDEHLMAFELEFMENFKGNFTVTKGKDTLILDNQKMKIYLKTP” the “soluble on expression in E. coli” value was “not soluble”. For “MFEAKLANAGLLKKIVESIKDLVTDAPFDCSETAMSLQAMDSSHVALVSLKLEVGLFDTYRCDRTINLGLSLANMSKALKCANNDDTCMLKYEENEGDSIIFTFADPKRDKTQDVTVKMMDIDSEHLGIPDQDYAVVCEMPAGEFQKTCKDLSTFSDSLNITATKAGIVFTGKGDIGSSVVTYSPSSNTDDETEAVTLEVKDPVNVNFSIKYMNQFTKATALSDRVRLSLCNDVPVVVEYPIEENGYLRFYLAPKIDDDENMD”, the “soluble on expression in E. coli” value was “soluble”. With “MFEHLCNIDDMTIIGQRSNPLNEDWNEWTLVICTKCKKVYEWQHHSEEQMHGGDLAITAIATDDYLHHKYNINEQDIPQILNKKKKIRRYDRYKKIYLEDYV” the “soluble on expression in E. coli” value was “not soluble”. With “MFEITRPPGVRAHVGVIGGSGLYDPGIVENPVEVKVSTPYGNPSDFIVVGDVAGVKVAFLPRHGRGHRIPPHAINYRANIWALKALGVKWVISVSAVGSLREDYRPGDFVVPDQFIDMTKNRRHYTFYDGPVTVHVSMADPFCEDLRQRLIDSGRRLGYTVHERGTYVCIEGPRFSTRAESRVWKDVFKADIIGMTLVPEINLACEAQLCYATLAMVTDYDVWADRPVTAEEVERVMISNVERARRMLYDVIPKLAGEPELERCSCCRALDTAAI” the “soluble on expression in E. coli” value was “soluble”. In the case of “MFEKVKVSTCFHVTLLKDYIVFYVSNNLNFASRWPRRRRGQRLLPTALRAMMLNPTEALLAEVSKARTSGARITVEEFIPIYKKVEAACGRSTTLKEFQTLLSHFDREGNGQIMLMELKSMLQNGGEKMTNQEARALKPATGLDTIYRNLNFNHKFTLDHSAIGFLRTNQFFDVQMIPVSRFFTVQDPSNALLSYTQKGIDFFEKLGQFSKEKAAIEEEYSTKLRSLAKKYAKKSEEDDEILKSVSYTSSFNSFLQQLDQIATRHQTSAEHIRGGVVSYVASKTCQMRSSRKNAINDLKTINDKLEDQINEMCKSGKCYLKSFKDAENSYQKFYKADKNLEISRLELEKARALANARNEACELAKQDYSALVRKTNAEQKRYHVELLPVIFARLKAVDKECIADMRQVLQKIVSFDDSLADSTEECRKIMQREVGKIDAEGDAQLVLKSVEATIEQPAPFEIEDLGDPKNCDSRTNDSADGSGGKLLKSSPSKNRIIRNFLGILKEKEADEKPEASNNDQLMYTDKSKPAHVRLSCLRSKIRDMEKQLEQAIQGREGITRLQQAYYTNPQHGNPSACTEPLISYAKKIEKLKMDIHNLKEFYAMLEMSVEEGQERSFGGRDTPDTTRSMSGSSTNQSSSKTIEDVLSGEAGNSSSADDSSKNILRQLFTTPKRLISSPKTSKSSTPTPLRRRAEISSPKILRSSFSGAIRKSLSTPDSVKVETAVTVTALFEFAKSSAETMSIEQGEILLVLEHDHGDGWTRTKNCRKHNEESGFVPTSYLQFPQ”, the “soluble on expression in E. coli” value is reported as “soluble”. With “MFENESLSFEEQTIIQAAERYVQQELANEASGHDWWHIYRVTQLAKTIAEKEQANLFLCILTALLHDIGDEKFNESEEAGLLKVQQWLEANNVSTEQTNHILSIIANMSFKGGNTGKTVTTLEGKVVQDADRLDAIGAIGIARVMAYSGNKGRLIHDPHKQPREQLTQEEYRNGEDTAIMHFYEKLLKLKEQMNTNYGRLLAEKRHQFMELYLEEFYQEWDGHR” the “soluble on expression in E. coli” value was “not soluble”. In the case of “MFFIGIFGIEEKAKVIRQIDVEICPFCTRKGSYTLFKVYNYLHFFFIPVLRWNTRYFIQTSCCSKVYLITNPQLAHDLEYGKDVPITLADVELFRNLQGMYQEGIDSDFCPNCGNRVSKNFLYCPYCGQKLELEHHHHHH”, the “soluble on expression in E. coli” value is reported as “not soluble”. For “MFFIRTAGLRDIEPVRTLLATTWHATYDAIYGADKVNELIAVWHSPQAMKDRVEKKGGEFLVADDGKRIGGMAYGSMSTKMAKTALLHQLYVAPDLQRQGVGRDLFAELETCFPDAEIMRLEVEPKNTVAIAFYEGVGFVEVDRIERMAGIEGLPGIVMEKSLTR”, the “soluble on expression in E. coli” value was “not soluble”. For “MFGKGGLGNLMKQAQQMQEKMQKMQEEIAQLEVTGESGAGLVKVTINGAHNCRRVEIDPSLLEDDKEMLEDLVAAAFNDAARRIEETQKEKMASVSSGMQLPPGFKMPF”, the “soluble on expression in E. coli” value was “soluble”.
